Laboratory results from patent US20160010082A1 (University of California, published 2016).
Numbering of substitutions follows the chain as printed.

B1: CPX-L2-3 displaying SApep at the N-terminus (other)
chain: GQSGQAECHPQGPPCIEGRKGGQSGQSGDYNKNQYYGITAGPAYRINDWASIYGVVGVGYGKFQTTEYPTYKHDTSDYGFSYGAGLQFNPMENVALDFSYEQSRIRSVDVGTWIISVGYRFGTRGSQATSTVTGGYAQSDAQGQMNKMGGFNLKYRYEEDNSPLGVIGSFTYTEKSRTAS
B2: CPX-L2-8 displaying SApep at the N-terminus (other)
chain: B1 chain with I115V, T123P, R124N, G125K, Q127R
B3: CPX-L2-9 displaying SApep at the N-terminus (other)
chain: B1 chain with T123P, R124H, G125N, Q127R
B4: CPX-L2-5 displaying SApep at the N-terminus (other)
chain: B1 chain with T123D, G125K, S126R, Q127R
B5: CPX-L2-6 displaying SApep at the N-terminus (other)
chain: B1 chain with I115V, S116A, T123A, S126R, Q127H
B6: CPX-L2-2 displaying SApep at the N-terminus (other)
chain: B1 chain with I115F, T123R, R124K, G125N, Q127H
B7: CPX-L2-1 (enhanced CPX, eCPX) displaying SApep at the N-terminus (other)
chain: B1 chain with I115L, T123S, R124K, G125S, S126R, Q127R
notes: also called eCPX-nSApep
B8: CPX-L2-7 displaying SApep at the N-terminus (other)
chain: B1 chain with I115V, R124H, G125N
B9: CPX-L2-4 displaying SApep at the N-terminus (other)
chain: B1 chain with I115L, T123H, G125S, S126H, Q127R
B10: CPX-L2-10 displaying SApep at the N-terminus (other)
chain: GQSGQAECHPQGPPCIEGRKGGQSGQSGDYNKNQYYGITAGPAYRINDWASIYGVVGVGYGKFQTTEYPTYKHDTSDYGFSYGAGLQFNPMENVALDFSYEQSRIRSVDVGTWIISVGYRFHRGYHAQRATSTVTGGYAQSDAQGQMNKMGGFNLKYRYEEDNSPLGVIGSFTYTEKSRTAS
B11: CPX with the streptavidin binding peptide fused to the N-terminus (pB33CPX-SApep) (other)
chain: GQSGQAECHPQGPPCIEGRKGGQSGQSGDYNKNQYYGITAGPAYRINDWASIYGVVGVGYGKFQTTEYPTYKHDTSDYGFSYGAGLQFNPMENVALDFSYEQSRIRSVDVGTWIAGVGYRFGGSGATSTVTGGYAQSDAQGQMNKMGGFNLKYRYEEDNSPLGVIGSFTYTEKSRTAS
notes: also called parent CPX scaffold
B12: CPX-6X-3 displaying SApep at the N-terminus (other)
chain: B1 chain with I115A, S116G, T123N, G125R, S126H, Q127R
B13: CPX-6X-1 displaying SApep at the N-terminus (other)
chain: B1 chain with I115A, S116G, R124K, G125R, S126Y, Q127H
B14: CPX-6X-4 displaying SApep at the N-terminus (other)
chain: B1 chain with I115A, T123S, R124K, G125Q, Q127K
B15: CPX-6X-2 displaying SApep at the N-terminus (other)
chain: B1 chain with I115A, S116G, T123R, G125H, S126Y, Q127K
B16: CPX-3X-3 displaying SApep at the N-terminus (other)
chain: GQSGQAECHPQGPPCIEGRKGGQSGQSGDYNKNQYYGITAGPAYRINDWASIYGVVGVGYGKFQTTEYPTYKHDTSDYGFSYGAGLQFNPMENVALDFSYEQSRIRSVDVGTWIAGVGYRFGTKATSTVTGGYAQSDAQGQMNKMGGFNLKYRYEEDNSPLGVIGSFTYTEKSRTAS
B17: CPX-3X-4 displaying SApep at the N-terminus (other)
chain: B16 chain with T123K
B18: CPX-4X-1 displaying SApep at the N-terminus (other)
chain: B11 chain with G123S, S124K, G125R
B19: CPX-4X-4 displaying SApep at the N-terminus (other)
chain: B11 chain with A115V, G122P, G123R, S124K, G125S
B20: CPX-4X-2 displaying SApep at the N-terminus (other)
chain: B11 chain with G123R, S124Q, G125K
B21: CPX-4X-3 displaying SApep at the N-terminus (other)
chain: B11 chain with G122S, G123W, S124P, G125N
B22: CPX-5X-1 displaying SApep at the N-terminus (other)
chain: GQSGQAECHPQGPPCIEGRKGGQSGQSGDYNKNQYYGITAGPAYRINDWASIYGVVGVGYGKFQTTEYPTYKHDTSDYGFSYGAGLQFNPMENVALDFSYEQSRIRSVDVGTWIAGVGYRFGRTRKATSTVTGGYAQSDAQGQMNKMGGFNLKYRYEEDNSPLGVIGSFTYTEKSRTAS
B23: CPX-5X-4 displaying SApep at the N-terminus (other)
chain: B22 chain with G116S, R123S, T124Q, R125S
B24: CPX-5X-3 displaying SApep at the N-terminus (other)
chain: B22 chain with A115V, R123A, K126R
B25: CPX-5X-2 displaying SApep at the N-terminus (other)
chain: B22 chain with T124K, K126N
B26: eCPX displaying the VEGF binding peptide at the N-terminus (other)
chain: GQSGQVEPNCDIHVMWEWECFERLGGQSGQSGDYNKNQYYGITAGPAYRINDWASIYGVVGVGYGKFQTTEYPTYKHDTSDYGFSYGAGLQFNPMENVALDFSYEQSRIRSVDVGTWILSVGYRFGSKSRRATSTVTGGYAQSDAQGQMNKMGGFNLKYRYEEDNSPLGVIGSFTYTEKSRTAS
notes: Disulfide-constrained 19-mer; also called V114
B27: eCPX displaying the CRP binding peptide (CRPpep) at the N-terminus (other)
chain: GQSGQEWACNDRGFNCQLQRGGQSGQSGDYNKNQYYGITAGPAYRINDWASIYGVVGVGYGKFQTTEYPTYKHDTSDYGFSYGAGLQFNPMENVALDFSYEQSRIRSVDVGTWILSVGYRFGSKSRRATSTVTGGYAQSDAQGQMNKMGGFNLKYRYEEDNSPLGVIGSFTYTEKSRTAS
notes: Disulfide-constrained peptide; also called CRP-1

Molecular target: T1, streptavidin-R-phycoerythrin (UniProt P22629 37-163, limits assumed)
T1 construct: Bought conjugate; also called SA-PE; fluorescently-conjugated streptavidin probe
T1 sequence (P22629 37-163 limits assumed): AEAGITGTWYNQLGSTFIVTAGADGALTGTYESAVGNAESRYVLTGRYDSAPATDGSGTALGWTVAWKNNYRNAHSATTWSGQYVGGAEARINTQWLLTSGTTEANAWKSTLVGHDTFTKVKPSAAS
Assay: flow cytometry of E. coli displaying the construct, 100 nM SA-PE; 25 minutes of expression

Going from B1 to B2, the “Relative Display level (fold fluorescence above background)” value falls from 29 fold above background to 17 fold above background.

First: B3
Second: B4
The “Relative Display level (fold fluorescence above background)” value of the first is lower: 23 fold above background for the first, 28 fold above background for the second.

Compared with B5, B6 is lower in “Relative Display level (fold fluorescence above background)” value: 24 fold above background for the first, 19 fold above background for the second.

First: B7
Second: B8
The “Relative Display level (fold fluorescence above background)” value of the first is higher: 33 fold above background for the first, 26 fold above background for the second.

First: B9
Second: B10
The “Relative Display level (fold fluorescence above background)” value of the first is lower: 27 fold above background for the first, 33 fold above background for the second.

With B11 the “Relative Display level (fold fluorescence above background)” value was 1.5 fold above background.

Molecular target: T1, streptavidin-R-phycoerythrin
Assay: flow cytometry of E. coli displaying the construct, 100 nM SA-PE; 50 minutes of expression

Compared with B12, B13 is higher in “Relative Display level (fold fluorescence above background)” value: 24 fold above background for the first, 35 fold above background for the second.

Going from B14 to B15, the “Relative Display level (fold fluorescence above background)” value falls from 38 fold above background to 28 fold above background.

Compared with B16, B17 is higher in “Relative Display level (fold fluorescence above background)” value: 7.1 fold above background for the first, 10 fold above background for the second.

Going from B18 to B11, the “Relative Display level (fold fluorescence above background)” value falls from 18 fold above background to 2.3 fold above background.

Compared with B19, B20 is lower in “Relative Display level (fold fluorescence above background)” value: 22 fold above background for the first, 14 fold above background for the second.

First: B21
Second: B22
The “Relative Display level (fold fluorescence above background)” value of the first is lower: 15 fold above background for the first, 24 fold above background for the second.

Compared with B23, B24 is lower in “Relative Display level (fold fluorescence above background)” value: 36 fold above background for the first, 32 fold above background for the second.

For B25, the “Relative Display level (fold fluorescence above background)” value was 22 fold above background.

Molecular target: T2, biotinylated vascular endothelial growth factor (UniProt P15692-4 27-191, limits assumed)
T2 construct: also called VEGF; biotinylated VEGF
T2 sequence (P15692 other isoform, or with tags, fused parts or gaps limits assumed): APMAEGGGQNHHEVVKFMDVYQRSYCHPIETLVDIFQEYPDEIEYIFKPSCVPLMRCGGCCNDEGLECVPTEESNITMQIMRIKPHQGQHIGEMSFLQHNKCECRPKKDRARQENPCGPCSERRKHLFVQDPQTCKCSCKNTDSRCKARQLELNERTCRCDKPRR
Assay: flow cytometry of E. coli displaying the construct, 65 nM biotinylated VEGF then 10 nM SA-PE; reference CPX display

For B26, the “fold more efficient display than CPX” value was greater than 3 fold.

Molecular target: T3, biotinylated C-reactive protein (UniProt P02741 19-224, biotinylated)
T3 construct: also called CRP; biotinylated CRP
T3 sequence (looked up): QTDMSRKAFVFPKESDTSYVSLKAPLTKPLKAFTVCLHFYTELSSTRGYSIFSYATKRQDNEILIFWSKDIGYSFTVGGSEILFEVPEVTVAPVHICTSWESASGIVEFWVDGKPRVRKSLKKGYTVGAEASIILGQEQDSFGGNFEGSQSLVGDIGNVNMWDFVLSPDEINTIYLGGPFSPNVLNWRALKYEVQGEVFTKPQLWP
Assay: flow cytometry of E. coli displaying the construct, 100 nM biotinylated CRP then 10 nM SA-PE; 30 minutes of expression; reference CPX display

For B27, the “fold higher fluorescence labeling than for CPX” value was roughly 50 fold.

Molecular target: T1, streptavidin-R-phycoerythrin
Assay: flow cytometry of E. coli displaying the construct, 100 nM SA-PE; 30 minutes of expression
Protocol: To compare the display level of CPX and eCPX as a function of time of CPX and eCPX, cells were subcultured 1:50 from overnight stocks into 5 mL LB Cm and grown for 2 hours shaking (250 rpm) at 37° C. The cells were then moved to room temperature (22° C.) to equilibrate and induced with 0.04% (w/v) L-arabinose still shaking at 250 rpm. Five μL samples were taken prior to induction, 30, 60, and 90 minutes after induction then added to 50 μL of 100 nM SA-PE in PBS and incubated on ice for 45 minutes. After which the cells were centrifuged (3000 g, 5 min), supernatant removed, and resuspended in 500 μL ice cold PBS. Cells were immediately analyzed with a […] using 488 nm excitation and collected fluorescence data at 576 nm.
The cell surface display level of SApep was measured at incremental times after induction of expression for these three scaffolds. […] The level of display was measured before and after 30, 60, and 90 minutes of induction using flow cytometry (FIG. 1). […] After only 30 minutes of expression, the level of display of eCPX-nSApep was 50-fold above background autofluorescence.

With B7 the “level of display (fold above background autofluorescence)” value was 50 fold above background.
